{"source": "the domain aggregation screens of Martell et al. (2025)", "assay": "soluble fraction after stress (log2 fold change); higher = more stays soluble; pooled small domains, quantitative proteomics", "conditions": "stress: 50 degC", "method_in_brief": "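Pooled custom libraries of small protein domains were each held under stress at 50°C. The read-out, high-throughput quantitative proteomics, tracked how much of each protein stayed soluble. This is reported as a base-two log fold change used to indicate aggregation propensity. Higher values mean more protein remains in solution.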", "data": [{"sequence": "HMAAAQILRAAVLRVPAEETMRFVTETPELRRYLGASLGPTAAIVRPGQEQNLAAALQSHGILVEFDE", "values": [{"measurement": "soluble fraction (log2)", "value": 0.0258}]}, {"sequence": "HMAADLIGLEARVTLPLTEDQRGFIETSVRGSLVRRAALSASGRLDRGQRVVILRSEGTTLIVDAL", "values": [{"measurement": "soluble fraction (log2)", "value": -0.844}]}, {"sequence": "HMAADRRKAERPLIDGQAVMDRFEVGPGPMVGKALKFLLALKRAEPDLDLAGTEERLDAWWNEQL", "values": [{"measurement": "soluble fraction (log2)", "value": 0.262}]}, {"sequence": "HMAAEFERKNGIVYFFHSSEKPHLNYPHVHARYGEDTISISLRDFTVIGSFSSKKKQKEAVEYVKNK", "values": [{"measurement": "soluble fraction (log2)", "value": -0.662}]}, {"sequence": "HMAAEPDQQLIKPASDPVLRTMKIEELMKMSEQVKIQMSKAAKNFDYLEAARLRDEHFALENLIKLRS", "values": [{"measurement": "soluble fraction (log2)", "value": 0.108}]}, {"sequence": "HMAAGELSGEALIALIERHPMALSALATTFGHSESDLRAFVEPLARQGRLRLFESQGTLFVGGIG", "values": [{"measurement": "soluble fraction (log2)", "value": -0.022}]}, {"sequence": "HMAAHHIILEEREQLSVSGVEEVESFDENTIVMLTNRGTLIVRGEELHIEKLSLDGGDLRVEGSIDSLTYE", "values": [{"measurement": "soluble fraction (log2)", "value": -0.274}]}, {"sequence": "HMAAHWANFLEALRAGRARRVLVARGVEGWLLKELERLGAPYTLVPRIELDTLLRTTHHQGIAAEVE", "values": [{"measurement": "soluble fraction (log2)", "value": -0.692}]}, {"sequence": "HMAAPELLTVRERQVAALISDGLSNQQIAHRLHLEVTTVKAHIGSIFNRLDMNNRVQIAIWAHDRQLVFS", "values": [{"measurement": "soluble fraction (log2)", "value": -0.266}]}, {"sequence": "HMAAQDIILKRNAEQIEAIVKEITDTDVKYRKFTNTEGVTYSIRRSEVFSITYENGTMDLFA", "values": [{"measurement": "soluble fraction (log2)", "value": 0.0231}]}, {"sequence": "HMAAQDLIVKTDASQVEARVLEISPDAVRYKRFSNPDGPTYVLPVAEIRYIRYANGEVEYYA", "values": [{"measurement": "soluble fraction (log2)", "value": -0.0166}]}, {"sequence": "HMAAQLAHVPAVTGRPLAEAQRILADNRLNAQVTQQPVAEPKLDGVVIAQKITEGTRTMRGATVPLIVGKY", "values": [{"measurement": "soluble fraction (log2)", "value": 0.128}]}, {"sequence": "HMAASGTVNSGGDPLRVRADPNTSSQILTKLSDGTQVEVLEQAENGWYKIAHEGISGFVSGEYLVVH", "values": [{"measurement": "soluble fraction (log2)", "value": 0.133}]}, {"sequence": "HMAAVAPPVLERIASDLATRFAGTLSPETVDRYVRESYHLLAERAGITRYLPSLTARFAGDRLDA", "values": [{"measurement": "soluble fraction (log2)", "value": 0.0481}]}, {"sequence": "HMAAVEDLPVKSVNGKKYHYYTVQPKESLYSLSHKLGISRQEIIKYNPGVEDGLKAYEDLLFPYTPK", "values": [{"measurement": "soluble fraction (log2)", "value": 0.105}]}, {"sequence": "HMAAVSTDEEFAALGIPAEWIPVLKSNGFQTVESLKKVAPGALFNQLGGLRKKNKLEIAMPSLDQVKAWLA", "values": [{"measurement": "soluble fraction (log2)", "value": 0.115}]}, {"sequence": "HMADDFISTLFSEGIIIDTEVKQFAERQGSPLQFVRHIASNLPEPRDIITMGEVRSVMREGA", "values": [{"measurement": "soluble fraction (log2)", "value": -0.149}]}, {"sequence": "HMADEEEIMVPQVVGKTYDEAKSELENAGFKVEKNEKTSDKASGTVISQSINGGAKKGTSVTLTVSKGN", "values": [{"measurement": "soluble fraction (log2)", "value": 0.149}]}, {"sequence": "HMADFYEVLGVERNASSDQIKRAYRKLARELHPDVNLDPVAQNRFKEVTEAYEVLSDPNKRSNFDRG", "values": [{"measurement": "soluble fraction (log2)", "value": 0.209}]}, {"sequence": "HMADGEWAEMQRQLTAAGLLVVGRAAQERIQRLSDISPLIEAAQRSNVVMLSERTVDEVLTLVPT", "values": [{"measurement": "soluble fraction (log2)", "value": -0.18}]}, {"sequence": "HMADGTSIYAEREVLYVTSPTANTAKVYNVSGALVRTMTLSAGQTVRTALPAGFYVVALGNGNTHKVIV", "values": [{"measurement": "soluble fraction (log2)", "value": -0.889}]}, {"sequence": "HMADKSLLELPGLDGDKVSALVTAGVRNVNDLADLATDELVEKTGFDEKTAADLIIAARAVVY", "values": [{"measurement": "soluble fraction (log2)", "value": 0.331}]}, {"sequence": "HMADLNQTDIDSITKSVGGVEQYKSLMDWAGKTLSQDAIDSFDDLVNTGNKGSIQLAVNGLVAQYQNDN", "values": [{"measurement": "soluble fraction (log2)", "value": 0.0325}]}, {"sequence": "HMADMKIHLRPYAHDTNRWHVDIRLMHPTAATEIRKRLVAPAGLSEAQARAWGERQVPTILGKALGVI", "values": [{"measurement": "soluble fraction (log2)", "value": -0.415}]}, {"sequence": "HMADNILPAQTDAIKALATENGFSNESLEKYLIENYGTTIYGLSRNQGIQIINLFQSENPPKP", "values": [{"measurement": "soluble fraction (log2)", "value": 0.144}]}, {"sequence": "HMADQIIEGILGKEGGYVNNPNDKGGPTRWGITQTTARAYGYSGDMKALPRDTAKAIYLSQYWT", "values": [{"measurement": "soluble fraction (log2)", "value": -0.183}]}, {"sequence": "HMADTPQAYIRQMVQEAGADGIMLSTITDRLRARFKDFKVRDLGYAQMRQYMASTGTYDLEKSGRNFRVHL", "values": [{"measurement": "soluble fraction (log2)", "value": -0.935}]}, {"sequence": "HMADTSLDHLGVLVRHASDVDAWAEFFENRGVTLASQPRTHRDGARSFYVDDPDGNRVQVIYHPPI", "values": [{"measurement": "soluble fraction (log2)", "value": -0.498}]}, {"sequence": "HMADWTETELAALRRAYASGTTRVSYDGKSVDYGSAEDLLSRIRTLQGAASDVAADAVAAVDA", "values": [{"measurement": "soluble fraction (log2)", "value": 0.0524}]}, {"sequence": "HMADYSMDDNAWNAKKADIDEWFEANPDFSANKAITDGLFSIGDSQVEMRKRYWASIAGVFAGLPNSPIG", "values": [{"measurement": "soluble fraction (log2)", "value": -0.152}]}, {"sequence": "HMAEANTEADFVAIGVRAELLPILQKLGVHTIEQLKGIKATKLFNDIPGMRKKLKLDAVQNPTLQEIEGWL", "values": [{"measurement": "soluble fraction (log2)", "value": 0.00541}]}, {"sequence": "HMAEAPGSVELLAERLRPWWEIHGGEWGSKTKALRFLFGDQAPVAGSYWRALEAAIAQIESTT", "values": [{"measurement": "soluble fraction (log2)", "value": -0.16}]}, {"sequence": "HMAEKNALWEEDAVYAADSSALARDGYDAIVRTDKGGKKGYLVVGTGGRERFMPLQTLVMLGYLKK", "values": [{"measurement": "soluble fraction (log2)", "value": -0.065}]}, {"sequence": "HMAEKRTAIITTARADIRQKPEATAPLAFEAVKDVVLELTDKPADGWVRVKHRDGSTGYIRINQI", "values": [{"measurement": "soluble fraction (log2)", "value": 0.0711}]}, {"sequence": "HMAELAKAKLDAAVQVALLKAGALDTDYLAYKLQGMDGVALDDKGSLTGWDTTLETLKSQYPTQFA", "values": [{"measurement": "soluble fraction (log2)", "value": -0.302}]}, {"sequence": "HMAEPTLNERLREALSDPAKLKIAKAIKAKYPIITARDIDTFLNMHEKDIENGADPMDEFEEFFHANY", "values": [{"measurement": "soluble fraction (log2)", "value": 0.127}]}, {"sequence": "HMAEPYDEDKVMEHLYIKGKDVVIAHLKHLKEHNEHVWLKKGVEWMQKNQDRLGFDMMEVIYVVHNH", "values": [{"measurement": "soluble fraction (log2)", "value": -0.0166}]}, {"sequence": "HMAEQEELDAIRPDLDGQEIMDILGIKPGREVGAARNFLLELRLDEGPLGYDEAVSRLLTWWAERT", "values": [{"measurement": "soluble fraction (log2)", "value": -0.13}]}, {"sequence": "HMAETLLWADAAQEGLNRIVAAQPILVRISAAKRLRDASEQAAKAAGVSTVEIGHVQHASESLQFGDA", "values": [{"measurement": "soluble fraction (log2)", "value": 0.165}]}, {"sequence": "HMAETLRLVGATNLNTLARARHPDDLAARNEFRRAIAQANPALFAGKSKVGSVSLPAGTVLALPPEV", "values": [{"measurement": "soluble fraction (log2)", "value": 0.184}]}, {"sequence": "HMAEVDDESIKLYDGGYQSNTTKSRLNALLSEFGYDTEHVFQKQFEWFISIFDLTEKAMRTVPFSNGMRL", "values": [{"measurement": "soluble fraction (log2)", "value": -0.0834}]}, {"sequence": "HMAEVGDFTLAELIKVLFNEAGVLKAPVELRNDNTGGLQYRVGAYTDSETGWETIASIADLKGA", "values": [{"measurement": "soluble fraction (log2)", "value": -0.436}]}, {"sequence": "HMAEWLLVQLTNGNWFYGEVIEKTDATIVLNTDILGKVSIQKLDIRRSISGPLTAAKRQEIEDSERAKD", "values": [{"measurement": "soluble fraction (log2)", "value": -0.0179}]}, {"sequence": "HMAFDDAHYKDMITSYLKKFKKGNRSEIENLIIPKLSEVLVEKQKKDKVKNLLQALRKDNQIRLKGKYWYL", "values": [{"measurement": "soluble fraction (log2)", "value": 0.135}]}, {"sequence": "HMAFIEADIGKRIKSLRNKKRITLESLAAETGFTKGYLSKVETSEKAPPVSTLGSIARALGVSISTLLGE", "values": [{"measurement": "soluble fraction (log2)", "value": -0.224}]}, {"sequence": "HMAFKDDDVQKAYDRYMDRYGELSVLYSDNGLKVDDDLFYKNNIPPNGKFTKEFFDELYELVNMEFINNY", "values": [{"measurement": "soluble fraction (log2)", "value": -0.0827}]}, {"sequence": "HMAFRLPNGYGTIRRLTGNRRKPYVALVNPTQVFDDEKGTSHYKYDLLGTFAEKIDAYNAVMQYHKSPGGL", "values": [{"measurement": "soluble fraction (log2)", "value": -1.35}]}, {"sequence": "HMAGAPANLAARLREQILQGAYHDGQRLPAERHLAAEHGVSRGTVREALRLLEQGALLTRKRGSGSYVTYP", "values": [{"measurement": "soluble fraction (log2)", "value": -0.314}]}, {"sequence": "HMAGDVVVEVVGKVRDPQVVTLPKGSRVQDALEAAGGVKPGVNTTDQNLARLLVDGEQIRIGLSS", "values": [{"measurement": "soluble fraction (log2)", "value": 0.0918}]}, {"sequence": "HMAGFGDSLEKMSDAVEALKLLMSTEDARNDQNIQKIARELKDVFNKYRTHLRKSYPDQYDRIKSTL", "values": [{"measurement": "soluble fraction (log2)", "value": -0.299}]}, {"sequence": "HMAGGNHPTRLELLDSAAHIAERDGTSALTVDAITKSAGHAKGTFYIHFDDRADLLVEMHRR", "values": [{"measurement": "soluble fraction (log2)", "value": -0.183}]}, {"sequence": "HMAGIPIHMSQLKQIILLLSQGYPIKGIARETGVSRNTIKGYLQTLTSQDLNVTDALKLENIQLEYLLRSP", "values": [{"measurement": "soluble fraction (log2)", "value": -1.65}]}, {"sequence": "HMAGLYSLLLVELPMERLPEDLPAIKAAWLKTGDTEAFKVALQAMSSRGWTIAVPGKHRDTQMTQL", "values": [{"measurement": "soluble fraction (log2)", "value": 0.35}]}, {"sequence": "HMAGPVLTPEEAEVLRILADHGEMTVDNISAEGKMSAAVVLRGLGVLSAYGLVAPGGPGRWRSE", "values": [{"measurement": "soluble fraction (log2)", "value": -0.253}]}, {"sequence": "HMAGTDLSERESEIAMLLLKGYPYKLIASRLYISESTVKSHVQNIYGKLGIHSRTELIEQFSAS", "values": [{"measurement": "soluble fraction (log2)", "value": -0.558}]}]}
